B1: SEQ ID NO: 209: Nocardia brasiliensis NBRC 14402 carboxylate reductase (protein)
chain: MERKAEVLAARRVEDLIERDAQVRAAIPDPVVTAELERADGSLAQTVARVMAGYADRPALGQRAVEFVPDENGCRRTRLLPWFDTITFGELWQRVGTVAAVWQSRAERSVRAGDFVAVLGSTGIDYTVVDLACTYSGAVPVPLQAGASPTQLAPIVREVEPKVLATDVGQLEVAVDLASAGDSVRSLLIFGLYAEDDEHCAAVESARRRLADTPVVVETIVELLASGQDRPAASLHASADPDELALLIYTSGSTGTPKGAMYTQRLLTNAWCAAGASPMPSIALSYLPMSHTMARQLLLTGLARGGTVYFAARNDMSTLFDDFALARPTLLGFVPRVCDMVLQRFQSEMARRVGADDEPTVVEQEVKTELREQFLGGRFLVASIGSAPLSADMREFMQSVLGIALIDAYGSTETGGVLMNNKVVRTAILDYKLVDVPELGYFSTDRPHPRGELLIKSRTLIPGYYKRPELNSQFFDAEGFYRTGDVMAQTGFDELVYVDRRNSVLKLSQGEFVAVSKLEAIFVGSPLVEQIYVYGSSERAYLLAVIVPVAEAIATHAGTAELKAAISESLRQIAKDAELSSYEVPRDFLLESEPFTVDNGLLAGLSKLLRPSLKERYGERLEALYRVAEAAQTQELAALRQQAGMLPVLETVSRAAQAVLGVSAAELRPDAHFTDLGGDSLAALSFSTLLQELLGVQVPVGVIASSANDLRRIANYAVAERSAGSLRPTSTGVHGTGSQLRAIDLRLDKFIDPSTLAAATTLPRAGEPRTVLLTGANGYLGRFLCLEWLQRLHHSGGTLICVVRGIDAVAARERLDEVFDSGDPELLHRYRELAEGTLEVLCGDISEPGLGLSERDWRRLADTVELIVHAAALVNHVLPYGQLFGPNVVGTAEIIRLAMTTRIKPVTYLSTVAVAAQVAPEQFTEDGDIREISAVRSLDEGYADGYGTSKWAGEVLLREAYDLCGLPVAVFRSDMILAHSRFAGQLNVSDMFTRLVLSVLATGVAPKSFYETDRMGNRQRAHYDGLPVDFTAQAITVLGSQVVSGFETFDVLNPHDDGLSLDEFVDWLIAAGHSIDRIDGYAEWLSRFGTALRVLSERQRQHSVLPLLHAYRRAAVPIPGAALPAKKFQAAVQDAQLGPGRDIPHLTPDLIEKYVSDLKLRNLL
modifications: Nocardia brasiliensis NBRC 14402
notes: Nocardia brasiliensis NBRC 14402 carboxylate reductase
B2: SEQ ID NO: 210: Rhizopus microspores carboxylate reductase (protein, listed as Rhizopus microsporus)
chain: MPPAFDPPYSVPVPGSEKKEGETVPFRHFKFADKLVDHPEGVFTAWDIFVHGYDSAGDKPFMGTRRIEDGVAKEYVWQNYPEVRTRIENFGKGMLHLGLKRQHAIGVYSVNRPEWTMTEIASYRQAFMIVALYDTLGAEAMEYIINQTSMEYIVLSADKLDNIIRLKSQIATISTAIVMDDEVDDAKKAEAEAAGIKVYTFRQVETMGSEITSESDLPKPEDIATICYTSGTTGVPKGAVITQANCVAAISAIAALGDKGTFADVNSDDIYISYLPLAHVFERVAQGIHLFRGAAIGYYQGDTLKLLDDIAELRPTVFCSVPRLFNRIYDKVLAGVKAKGGVSAYLFNTAFQSKKRHLSKTVHHWLWDRVVFTQIRQKLGGRLRFILSGSAPVSPDVMDFMRICFSAKVFEGYGQTENFCGGALTITDDNTSGVVGAPFPCSEIKLVDVPEMEYFSTDKPFPRGEICIRGTSIMQGYYQLPEKTAEAIDKDGWLHTGDIGQFDSANRLVIIDRLKNIFKLSQGEYIAPEKIEGVYQKHELVAQAFIYGDSMQSSLVGIIVPDKDAFSAWAKEHFPTVEDPYASDEVKKALLKELTAYGKENDLKGFEQMRSVYLTPNEFSIENDLLTPTFKLRRENAKKVYESQIEIMYASLSNGRAFN
B3: SEQ ID NO: 214: Mycobacterium lepromatosis carboxylate reductase (protein, listed as Mycobacterium lepromatosis)
chain: MSTTNTQEEQLARRVDYLTANDPQFAAAKPDPAVVAALAQPGLRLPQIIQTTLDGYAERPALGQRVVEFIKDPKTGRTSIELLPCFETITYRELSDRVGALARAWIHDLLHAGDRVCVLGFNSVDYAIIDMALGVISAVAVPLQTSAAITQLQPIVIETEPRVIAASVNQLPDTVELILSGPAPAKLVVFDYHPEADEQRDAVATARERLVDNNVVVESLIEVLDRGKTLPATPIPVADDSDDPLALLIYTSGSTGAPKGAMYPQSNVGKMWRRSDGNWFRSTAASITLNFMPMSHVMGHGILYGTLGNGGTAYFAARSDLSTLLEDLKLVRPTELNFVPRIWETLYDECQHAVDRRLTNSGSADRAAIEAEVMDEQRQSLLGGRYIAAMTGSAPTSPELKHGVESLLEMHLLEGYGSTEAGMVLFDGEVQRPPVIDYKLVDVPDLGYFSTDQPYPRGELLLKTQNMFPGYYKRPEVTATVFDGDGYYQTGDIVAEVGPARLVYVDRRNNVLKLAQGQFVTVAQLEAAFSNSPLVRQIYIYGNSAHPYLLAVVVPTEDALATNDIEALKPLIIDSLQEVAKEAELQSYEVPRDLIIETTPFSLENGLLTGIRKLAWPKLKQHYGARLEQLYADLAEGQTNALHALRQSGAEAPVLQTVSRAAGTILGAATTDLPSNAHFTDLGGDSLSALTFSNLLRELFNIDVPVGVIVSPVNDLAAIADYIESEQQGTKRPTFTAIHGRDAGEVHASDLTLDKFIDVSTLTAAPMLAQPDAEVRTVLLTGATGFLGRYLALKWLERMDLVDGKVIALVRAKSNEEARARLGKTFDSGDPKLLAHYQELAADHLEVIAGDKGEVELELDRQTWRRLADTVDLIVDPAALVNHVLPYSELFGPNALGTAELIRIALTSKQKPYIYVSTIGVGDQIEPAKFTEDSDIRVTSPTRKINDNYANGYGNSKWAGEVLLREAHELCGLPVAVFRCDMILADTSYAGQLNVPDMFTRMMLSLAATGIAPGSFYELDAESNRQRAHYDGLPVEFIAEAISTLGAQSLHGRDGFATYHVMNPHDDGIGMDEFVDWLIDAGCPIQRINDYDEWLRRFEISLRALPERQRHNSLLPLLHNYQKPEKPLNGSLAPTDRFRTAVQESKIVQDKDIPHISSAIIGKYVSDLQLLGLLRRQADRSPARVPS
B4: SEQ ID NO: 211: Theileria parva carboxylate reductase (protein, listed as Theileria parva)
chain: MNHLYSVALEGTEEEGYTPVYRNPDYKDRLLSCEDYFDGKIQTGWDIFNRGLTLSRNKPFLGSRVKNADGTFGEFKFMTYGEVEDQIKHFGSGLLNLDKFKEVFVKEENQMVKMLGIYSQNTVEWLITEQVCNGYNLTLVPLYDTLGEESLLYIINVTKLNVIVCDYKCSLKLLDLLPKSNGSVSLVVVTGVDELPDQVTAKSQSLSSVTFKTYQEVVNFGKEDPLAFTPCTKDSIGTISYTSGVSGIPKGVIVKHFQHASLVVIVNRIVCDLEKTQLENPKVHLSYLPLSHMFERLYIGTSIIEGSVIGLFSGDVKNILEDIKALRPNVFPSVPRLYMRIHDKIFSTVSQKSFLIRSLFGLGLSRKLKKIRKTGVVTHRFWDKILFNKFNTLLGGRVNWMLTGSAPLSPKIFDNIRALFSIPLVSGYGLTETCAGAFHTERYEPDSTHVGGPVPCMEFRLKSLPDYNYYTTDKNPKGELLLRGNNIVTSYFSDDVTNKESFDENKWFLTGDIAELLPNGAIRIIDRRKNIFKLSQGEYISPEKIESILNTAPILCQSYVTGKSHFLNPVAVVVPDELELELWSKRYGLANLDRKEQCEVKQLKEFIAKEIEKVFENSDVKGFEKIKNFYVEHELFSIENNLLTTTSKLKRYNLSKKYAEQIDRLNDES
B5: SEQ ID NO: 212: Anisakis simplex carboxylate reductase (protein)
chain: MYERLLHCIGYQVGLRFGFFGGDVNRLIDDIKELHPTVIPLVPRVLNRFHDTVMAKVNKSFLKRIIFNLALAFKYRELSRSIIRNDSLVDRYVFKRVREELGGRARFSMIGSAPVHGDILRFSRAVLGYVIVEGYGATECAAGTSAVIEADPITEHIGIPLACAAIKLVDVPELGYYAKDQAGEICYRGAHVFKGYFKNDEGTKEVLDADGWLHSGDIGRWTERGTLKIVDRKKHIFKLQQGEYIAPEKIEAVYDRSEYVVQSFVYGESLKTCLVAIIVPDQEIVLRDAKQKLDLAETDFAKLCRNDAVKKMILNDLTIVGRKAGLNSFEQVKDIYLSVERFTIANDLLTPTMKNKRPQIKSHFMKELNEMYSKLK
modifications: Anisakis simplex
notes: Anisakis simplex carboxylate reductase
B6: SEQ ID NO: 213: Helobdella robusta carboxylate reductase (protein, listed as Helobdella robusta)
chain: MRVSNNGPFLGHRCRFTKQYVWQTYEEIFELCQDFGSALIYKGLKPEDSTVIGIYSHNCVEWNITSETCSMFSMALVPLYDTLGPEACQYIINQTEMTTVVCEGWLKANLILNGLKQAESRTATPLKRLIIITNKDFHMSLKDSVRVSKHFSSSPDLANFADADSLSKNVLETAEKFGVEIPPTPSTINLISYTSGTTGDPKGVVLTHEAVICNISGLLAYDQHHKLFPKCGDFHLSYLPAAHGFERMNQIILMINGGQIGFSSGDILLLLDDIAALRPTIFMCVPRVLNRVYEKVMSNLENKPIKRWLFNFGMQRKLNLLKRGIITKNTIWDKLMFHKIQTLFGGRLEVCISGSAPLSDVVMDFCRGTFGCFVYEGYGQTELCAATMLTLPYEHDTVVVGPPLPNCHIKLIDIPDLDYKAINNMGEICIKSFCRMREYFKEPIKTRETLDEDSYIHTGDVGMWLPNGNLRIIDRRKHVFKLAQGEYVAPEKIENIYAMSPLICQVFVDGNSLQFCPLAVVVPDEDALKRLAERDSRTSKTICPIKICNMEQFCKNEEIRKMIHADMLQRGKKAGLKGFEQVKDIHLHPEKFSIENGLLTPTMKTKRPILRKKFQNIFVEMYEKLNRNVVSTNITTHPLQNL

Assay: In vivo carboxylate reductase screening, substrate consumption by LC-MS, monomethyl heptanedioate
Type: cell-based, Escherichia coli
Details: 541 enzymes screened in vivo
Procedure: To screen carboxylate reductases in vivo, […] T7- pUC expression vectors was co-transformed into T7 Express lysY/Iq with the phosphopantetheinyl transferase sfp from Bacillus subtilis on a T7-pCDF expression vector. Biological duplicates of the resulting strains were incubated in 0.5 mL of terrific broth containing either 1 g/L heptanedioate or 1 g/L monomethyl heptanedioate and supplemented with 0.4 mM IPTG in 96-well deep well plates. The plates were incubated for 30 h at 30° C. in a shaking incubator. The cells were then pelleted, and culture supernatants from the same strains in media containing either heptanedioate or monomethyl heptanedioate were combined. The combined supernatants were analyzed by LC-MS to determine the concentration of heptanedioate and monomethyl heptanedioate. Carboxylate reductase activity on heptanedioate or monomethyl heptanedioate was reflected by consumption of the respective substrate in the medium.

Q: For B1, which monomethyl heptanedioate activity is on record?
A: most monomethyl heptanedioate activity

Q: With B2 as the molecule, how does the monomethyl heptanedioate activity read?
A: most monomethyl heptanedioate activity

Q: For B3, which monomethyl heptanedioate activity is on record?
A: most monomethyl heptanedioate activity

Q: For B4, which monomethyl heptanedioate activity is on record?
A: most monomethyl heptanedioate activity

Q: For B5, which monomethyl heptanedioate activity is on record?
A: most monomethyl heptanedioate activity

Q: For B6, which monomethyl heptanedioate activity is on record?
A: most monomethyl heptanedioate activity
